These results are taken from patent US20210238305A1 (REMEGEN, published 2021).

The target in the test is T1, human epidermal growth factor receptor 2 (Her2) (human, UniProt P04626 23-1255).
T1 construct: whole, on cells; Endogenous Her2 in fixed patient tissue; also called ErbB2
Kind of test: IHC grade, no antigen retrieval, breast carcinoma sample 5 (18-07814-1).

B1: RC48M antibody (antibody, mouse IgG1, kappa, V domains shown)
VH: EVQLVQSGAEVKKPGATVKISCKVSGYTFTDYYIHWVQQAPGKGLEWMGRVNPDHGDSYYNQKFKDKATITADKSTDTAYMELSSLRSEDTAVYFCARNYLFDHWGQGTLVTVSS
VL: DIQMTQSPSSVSASVGDRVTITCKASQDVGTAVAWYQQKPGKAPKLLIYWASIRHTGVPSRFSGSGSGTDFTLTISSLQPEDFATYYCHQFATYTFGGGTKVEIKR
notes: also called R48M
Turning to B1, the binding result is given as “binds”.
